The data set is described as follows: label from the status in PepcDB records.
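Further: failed if final PepcDB status was selected cloned or expressed and not failed if soluble or beyond.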

For the sequence “MSFNTIIDWNSCTAEQQRQLLMRPAISASESITRTVNDILDNVKARGDEALREYSAKFDKTTVTALKVSAEEIAAASERLSDELKQAMAVAVKNIETFHTAQKLPPVDVETQPGVRCQQVTRPVASVGLYIPGGSAPLFSTVLMLATPASIAGCKKVVLCSPPPIADEILYAAQLCGVQDVFNVGGAQAIAALAFGTESVPKVDKIFGPGNAFVTEAKRQVSQRLDGAAIDMPAGPSEVLVIADSGATPDFVASDLLSQAEHGPDSQVILLTPAADMARRVAEAVERQLAELPRAETARQALNASRLIVTKDLAQCVEISNQYGPEHLIIQTRNARELVDSITSAGSVFLGDWSPESAGDYASGTNHVLPTYGYTATCSSLGLADFQKRMTVQELSKEGFSALASTIETLAAAERLTAHKNAVTLRVNALKEQA”, the protein production result is reported as “not failed”. To “MSFRKVEKKPTEMGRNMTHEKSDSDSDNEGAPMTVGGYTEFVARSDSDWDEPVYSGKARSNYNLTGTAKGTGPINSFSRKHFPNY” belongs “failed”; to “MSGAVPETPYHQRWLAFPDAVSSYRPLESRLAGTSRATADNRTPCTGRLGTPRVFLMATDDVSKAYSSPTFDAEALLGTVISAEDPDRVLIEPWATGVDGVILDVGSGTGRWTGHLASLGHQIEGLEPATRLVELARQTHPSVTFHHGTITDLSDSPKRWAGLLAWYSLIHMGPGELPDALVALRMAVEDGGGLLMSFFSGPSLEPMYHPVATAYRWPLPELAQALETAGFQVTSSHWDPRFPHAYLTAEASKQNLALEHHHHHH”, “failed”; to “MSGDVQPRKRKDKRRKRDDDESSHGVHITKMGNEDLHLHVHHDHGTGGHWCAKIIFFALMAVLLGLVGLIIMENRGLEDLDTPLSESRFSKVFDGWVDEHRDEHDGHDVQEPSGEALDDHDEHDDHDDHEDEDEEPLTEELEEELEEEEEPTEEDEPAADEEYEEDEDEENNAGENITAEDAEEEEEEEDNDDEGTVEATVEATTEATTEATGEYEAEEDDEDEAAADDDAVESTEAPLSKAEEQEDDEDEDEEEQEIEESVEPERSQYAAQSAPAKDNNDDDDDDDQDKNDADDGDDDEFESLAQQFENDPEDTVPAKAVESEEQDQDQADEEEPKEEGSSWLASQIKPKEAAPAPAEKEDPFEQELRKANEEMIRENYAQALRSFNTLTTNFAHEPSAHLGRARLLELLAKKERSNQRLWEAIDAYKRYLAFGELVASNQEFQTAGESCIENLRFLGHHRQATTIHELLINRLPEDPRLRNQLSLTYLMVNNLQQVEKVAVETLKLWPNNAVAQLHYGLALRQFHADYAKALPYLKYAVESGEEGTQEAFFYLSLGETMQRLSMKSEALEVYGKGVAKGFFASLYQRSLYNEPRLRAQPFWQPKETGYERQLEKLTLNWRAIRDEGLALLGRSGFFEDEAELLRDKGVWQQYELYAQGRRVKDNCRRAPITCSLLEEFPESAGCRRGQVKFSVMQAKTHVWPHCGPTNCRLRAHLTLAAPEPEKASLRVAEQERTWREGELFIFDDSFEHEVWHNGSQSRLVLILDMWHPQLSAAQRRSLSPI”, “failed”. As for “MSGEDEQQEQTIAEDLVVTKYKMGGDIANRVLRSLVEASSSGVSVLSLCEKGDAMIMEETGKIFKKEKEMKKGIAFPTSISVNNCVCHFSPLKSDQDYILKEGDLVKIDLGVHVDGFIANVAHTFVVDVAQGTQVTGRKADVIKAAHLCAEAALRLVKPGNQNTQVTEAWNKVAHSFNCTPIEGMLSHQLKQHVIDGEKTIIQNPTDQQKKDHEKAEFEVHEVYAVDVLVSSGEGKAKDAGQRTTIYKRDPSKQYGLKMKTSRAFFSEVERRFDAMPFTLRAFEDEKKARMGVVECAKHELLQPFNVLYEKEGEFVAQFKFTVLLMPNGPMRITSGPFEPDLYKSEMEVQDAELKALLQSSASRKTQKKKKKKASKTAENATSGETLEENEAGD”, the entry is “failed”. To “MSGEPDGERVIAGRYRLLSPLGEGGMGTVWRARDEVLRREVAVKEVRAPAGLSQPDVGRMYARLEREAWAAARISHPNVVTVYDVATDGGRPWIVMELVRGLSLADLLDAEGPLEPRRAALIGAEVLAALRAAHAAGVLHRDVKPANVLLANDGRVVLTDFGIARVEGSEALTMTGEVVGSPEFLAPERALGRTPGAASDLWSLGVLLYATVEGVSPFRQGTPLSTLRAIVDEAVPPPRRAGALGPVVEGLLRKDPAERLPAEEAERALRLVGAGGAPPGRGPRTGAPPSGAFAPTVVAAHPGPPTAPTPPMPVPAAGDTSAAGAPGAPGGRDRRARAVLLVGLAVLVLALAGLTYSLLDRSDGGGGTEGSGGSPGPGATSAATSGGAGEPSPPASSGTDGGQSGPAAQSVEVTVVGSRTHYSGACPPPHDRAPAFTATFTVGRLPAEVGYRWVTADGSVSDPGWRTLSFPSGGERSRQDGVVVTTHDDTGAFESAVRVEVRSPVRATSDAVAFSVTCGTGTETETGTGTPSGGASHSSSPSAPSSSPSA” belongs “failed”. Take “MSGITMAMRGPRLEFAVGAFLLLTLASLLVLAVASTNQRWGFGSSQYTLTARFSQIGQLRAQAPVKIGGVTIGKVSDISLDPTKFDSIVTLSLDTRYKDLPADTSAGIFTSGLLGESYIGLQPGGDPDTLKPGDEIGFTQPAVDLLQLVGKYMFSGGGSGSNANVPAATNGQAPAPARTAPPPTEPHQ”: the protein production result is recorded as “failed”. As for “MSGLLPLLDFAGYVALLLWGVHMVQTGVQRAFGAALSIALGRALGTRLRAFASGLGITAALQSSTATGLMITGFAAGGVVALVPALAAMLGANVGTTLIVQLLSFDLTSLAPILILAGVWMFRRAAPGRTRDLGRVFIGLGLLLLSLHQLVQLFQPFETAPLLGVLLDALASQPVAAVLLAAALTWAAHSSVAVVVLVMSLASHGMVNPALAFALVLGANLGTAINPMIEGVTGDDPAARRLPLGNLLTRVAGVLAGIILLPWLQPWLSGLAGDPAHAVANFHTLFNVVIALVFLPILTPYAALLTRWLPKRADPNDPARPQYLDEWAHDVPAVALGNAAREALRMADMLQTLLLYARAGFKRDNRHRMVQARQLDSALDKLETAITTYLATLDQENMTREDHQRLDTILAFCSNIGHAGDIAYHGLLNHIGRLRKQGLLLSADQRASLDATLGELIANQRQAAALFVTDDLRQARALAGEKARFRALEAEAAETQLQQIKSGKVDAAEVGALYLDILRDLKGINSHVVGASAYPLLARHGELLPSRLRDAGN”, the entry is “failed”; as for “MSGMAKYMEIYIDIRDKINQNKYEINEKLPDGDSMARTYDCSKLTVKKALDMLVQEGMIIRRRGAGTFVKSHSTNGGEFALGPMSGLVNTFGKDNIKSKVILFSIEKPSKEVAEKLEMQDDYIYRIIRMREVGHKAYSIEHTYMPLAIIPGLEPHHLEDSIYNYIRDDLKLKMQSAHVWVRGDKSNQEDSKLLDLEEPTFMMEIEKLAHLEDGRVFEYSITRHTYESFVFETVFVQN”, “failed”. Take “MSGNSDEATAPGADWDALAASFDDEPDHGLRDAEVRRAWAARLASWLPAPPGDVLDLGCGTGSLSLLAAEQGHRVTGVDLSPAMVELARTKLAGRDAVFLTGDAAAPPVGEQRFDAVLVRHVLWTLPDPGRALRHWRQLLRPGGRLVLVEGVWGSVSPVGIPADRVTALLGPLTGQARVERLSDDPSLWGREVADERYAVVATYG”: the protein production entry is on record as “failed”. As for “MSGNVGAGRHADELAIRTVQYRWLEATRKFDRQVLSSLMTDDVVFLTPGRLPFGKEEFLAACEQNDQRVIIEASATFEEIVIVEPMAYTRTHLHIKVTPRSGGAVRELAGHAMSIFRRSMFGEWQLARDANLVVPI”, the entry is “not failed”; as for “MSGSEYSEVDVNEGDSIWALADQYAAKSDMAKADFVSWVEKENNLTDGHVKAGDYVVIPVHETKLQRSDSTIQLANQLEHHHHHH”, “not failed”; as for “MSGSGKTITQMKSTAILAPVIAVILILSACGKPMDAQALVAEAKQYQQQGNDKAAIIQLKNALQQSPNDPEIRYLLGTLYNREGDIQSAEKELNKALDLGMDPVKVLPGLSRAWLGMGKFQQVLDETGKLSDKGNFAELLALRGNASLALGKFEEAKVLFEQALQDKPGFSDALTGLARYSLARNDIESAMNFSEEAVKLNPENSDAVLFRGDLLRAQNKIDEALADYDKAIKLNPESEAAYINRATISISTKKFEAAQADLDAVRKIAPGSLLAAYTQALLDFSQGKHAVALETLQRILSSAPGHLPSVLLAGATQFALGSFPQAGQYVEQYLKAIPNNLYAIKLMASIQLKNNQVKQAITTLTPALKSVQQDPQLFALAGEAYMRSKDFTKASEYFEKAGELAPDNASLYTALAMSKMGQGDSKSAIADLEQAAQLDDQSGRAGVMLVLTHLQLREFDKALKAVESQLAEQPDNPLLHNLKGGIYLGKKDLAKARSSFNQALSIQSDYFPAISNLARIDMQENHPEAAQQRFEDVLKRDKKNVQAMNALAGIALARGNKEEATGWLEKASRENPDELQPALQLGAHYLAVNDPGKSLALAKKLQGIHPDNLSIVELLARSYLATGDKDAALENFQKLAARLPDSAPAQLQLAQIYSSMQNNKAAAGSLKKALTIKPDLWEAKLMQAQLAVAADRVEDAFNISHDLQKQHEKLPVGFELEGDLQMRQKNAAAAATAYEKALSRQKNSQLLIKLHTALSQSGKEKQADQRLNQWLKENPTDAVTRTYLAGVYLASKKYDPAIKEYQTILKQHPDHAATLNNLAWVYQQKKDPVALEYAEKAYKQAPDSPAILDTLGWILIEKGDAERGTSLLQKAVTAVPEAAEIRYHYAVGLFKSGNKAEARQELEKLLGGDKPFPQRDDAKKLLESL”, “failed”.

As to “MSGSKTSAEKKESETEKSSDIAQVKIKDVSYTLPSKYDKSTSDDQLVLKVNVAVKNTGKDPLNVDSMDFTLYQGDTKMSDTDPEDYSEKLQGSTINADKSVEGNLFFVVDKGKQYELNYTPESYGDKKPKSVTFKIDGKDKKILATADKLQDSAKALSAYVDVLLFGKDNADFEKITGANKNEIVNDFNESAKDGYLSASGLSSTYADSKALDNIVNGIKEGLSKNSSIQAKTTSISKDEAIVEATVKPVDASSLSDRIEDKVKDYYSKNSSASYEEAVKYALQVYPEEFKKLGPASSEKTVEVKMKKNDIDQWQLDMDDYRAAELVEAFIKELEHHHHHH”, the protein production entry is recorded as “not failed”. For “MSGSNVAPEDKRMEDRKFRANIPPQTIVFCTVYQTTIGLTNSQHQKIRLASLRLPLLFFQQRQTSAAPPKEDVMNEETLKKIQSNPKYLELVHKKTSLGWTLAIVMLVIYYGYILVLAFAPSLLGKPLYQGATMTVGIPVGVCIILSAFVLTGIYVRRANQEFDPLTQQIVEEAK”, the protein production entry is “failed”. To “MSGTRHQIVVALGDTRYRVDRPFGTWPQTAGKVSDVVVLRDGRVLVLLRSDPYVDPDGPRVIVLSCDGDYLGAWGDLDIADAHLMTPAPDGRLFIVDRDMHEIIVFSADGQRVGGIGTRGAPGTPFNHPTDVAFAPSGDFYVSDGYAGWHVHRFAGDGTHLATWGAFGSGRGEFLEPHSLWCLPDGRVVVVDRCNNRLQVFDADGVFLDEWTGFHRAVGIWGDDAGDIFVSDQVPSLHRISQNGTRLGRARPVLNGAHGIFGSPDGTIYLAEANPSRVSRLTPL” belongs “failed”; to “MSGVLLLFIIGFIGSFISGMVGIGGAIINYPMILYIPVLLGFTGYTSHEVSGITAVQVFFATFAGAWAYRKSTDMNKMLVVYMGASILIGSFIGSFSANLLDEHAVNVVYTVLATIAAMMMFVPKKNNSGAVKYNKWLASVLAFIVGGVSGIIGAGGAFLLVPIMLVILKLPLRMTIATSIAITFISSVGITTGKVITGQVVIIPALIIAVASIFAAPLGARVGKRINQKVLQYMLSILIVGTAVKMWIDMILK”, “failed”; to “MSHDHHHHHGPGAAHGAGGHSHAPQDFGRAFAIGIALNMVFVVAEAAFGYFSNSMALIADAGHNLSDVAGLVVAWIAAGLSKRPPSARYTYGLRGSSILAALFNAVFLLLAVGAIGWEAVVRLFAPEPVAGITVMVVAGIGIVINAVTAWLFASGRHSDLNIRGAYLHMAADAAVSAAVVVAGVIILSTGWYWIDPAVSLIVAVVIVWGTWGLLRDSTALSLAAVPRDIDPTAVRAFLSKLPGVTQVHDLHIWGMSTTEVALTCHLVMPGGSPGDPFLVDLAHELQHDFGIAHTTVQIETDPNTVCALAPEHVV”, “failed”.

Values taken from a protein production outcome set (Wang et al. 2014).
